Tests used:
osteoclasts = conditions: cited from earlier work
prostate cancer cells = conditions: cited from earlier work
HeLa cells = HeLa cells (human); cited from earlier work
B-16 melanoma cells = B-16 melanoma cells (mice); cited from earlier work
lung cancer cells 3LL = lung cancer cells 3LL (mice); cited from earlier work
[1] = test system: Morris liver cancer cells; conditions: Morris liver cancer cells (rats); cited from earlier work
[2] = Glycosyltransfering reaction with crude enzyme, substrate PPT; assay type: biochemical; conditions: cell lysate of recombinant yeasts, method of Example 4
[3] = Glycosyltransfering reaction with crude enzyme, substrate CK; assay type: biochemical; conditions: cell lysate of recombinant yeasts, method of Example 4
Procedure, shortened: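 Crude enzymes were lysis supernatants of recombinant yeasts expressing glycosyltransferases, with lysate from E. coli carrying empty vector as control. Reactions with ginsenoside or ginsengenin substrates ran 12 h at 35 °C and were stopped with butanol. Products were extracted, dried and redissolved in methanol.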

[4] = Glycosyltransfering reaction with crude enzyme, substrate Rg1; assay type: biochemical; conditions: cell lysate of recombinant yeasts, method of Example 4
[5] = Glycosyltransfering reaction with crude enzyme, substrate Rg3; assay type: biochemical; conditions: cell lysate of recombinant yeasts, method of Example 4
Method: (§1) The lysate supernatant of the recombinant yeasts expressing the empty vector was used as control.
(§2) The reaction was conducted under 35° C. for 12 hrs, then stopped by adding 100 μL of butanol. The product were extracted, dried in vacuum, and dissolved in methanol.
(§3) The reaction products were first detected by thin layer chromatography (TLC). […]

[6] = Glycosyltransfering reaction with crude enzyme, substrate PPD; assay type: biochemical; conditions: cell lysate of recombinant yeasts, method of Example 4
[7] = Glycosyltransfering reaction with crude enzyme, substrate Rh1; assay type: biochemical; conditions: cell lysate of recombinant yeasts, method of Example 4
Method: as §1, §2, §3

[8] = Glycosyltransfering reaction with crude enzyme, substrate F2; assay type: biochemical; conditions: cell lysate of recombinant yeasts, method of Example 4
[9] = Glycosyltransfering reaction with crude enzyme, substrate Rh2; assay type: biochemical; conditions: cell lysate of recombinant yeasts, method of Example 4
[10] = Glycosyltransfering reaction with crude enzyme, substrate F1; assay type: biochemical; conditions: cell lysate of recombinant yeasts, method of Example 4
Method: According to the method as in Example 4, the cell lysate of recombinant yeasts expressing gGT13 and gGT30 were used to catalyze PPD and PPT.
The lysis supernatant of recombinant E. coli expressing empty vectors was used as control. The 100 μL reaction system is shown as Table 3. The reaction was conducted under 35° C. for 12 hrs, then stopped by adding 100 μL of butanol. The product were extracted, dried in vacuum, and dissolved in methanol.

| Molecule | cytotoxicity to osteoclasts (osteoclasts) | inhibition of the generation of osteoclasts (osteoclasts) | inhibition of prostate cancer cells (prostate cancer cells) | inhibition of proliferation (HeLa cells) | inhibition of proliferation (B-16 melanoma cells) | inhibition of proliferation (lung cancer cells 3LL) | inhibition of proliferation [1] | conversion of PPT [2] | conversion of CK [3] | conversion of Rg1 [4] | conversion of Rg3 [5] | conversion of PPD [6] | conversion of Rh1 [7] | conversion of F2 [8] | conversion of Rh2 [9] | conversion of F1 [10] |
| --- | --- | --- | --- | --- | --- | --- | --- | --- | --- | --- | --- | --- | --- | --- | --- | --- |
| CC(C)=CCC[C@](C)(O)[C@H]1CC[C@]2(C)[C@@H]1[C@H](O)C[C@@H]1[C@@]3(C)CC[C@H](O[C@@H]4O[C@H](CO)[C@@H](O)[C@H](O)[C@H]4O)C(C)(C)[C@@H]3CC[C@]12C [ginsenoside Rh2, 3-O-β-(D-glucopyranosyl)-20(S)-protopanaxadiol] | strong cytotoxicity | poorly inhibits | significantly inhibit | can inhibit the proliferation | can inhibit the proliferation | can inhibit the proliferation | can inhibit the proliferation |  |  |  |  |  |  |  |  |  |
| gGT30: glycosyltransferase protein with 451 amino acids, SEQ ID NO.: 6 (protein, Panax ginseng; gGT30) MATQKCFRVLVFPWLAHGHISPFLELARKLIEKGNFFIYFCSTPINLISIKKKLSGDDHQNYTKSIQLVEHNLPTLPQLPPHYHTTDGLPPNLNPTLRKAFEMSKLSFPNTLNTLKPDLLICDDLFQWPEIVASSHGVPVVRFQTCSVTAASFLAHIFTNPDVTYPFPAIYLHEYETDQIRRCVDAVFESGREESRNLLVVNTSKAIEEKYFYYYSLLRGNTKIMPVGPLIQQAPNGDEDMKVIEWLDKKDPCSTVFVSFGSEYFMQKEEVEEMAHGLELSNVNFIWVFRAPVGAEKVKLPLGFVERVGGRGIVMEGWAPQARILGHSSIGGFVSHCGWNSVLETINFGVPIIGMPMKFEQPMNARLLSELGVCVEIVGDETRRFGREEVGNVIREVVGGKIGDDLRRKVKELGAKIKEKQEEEMDDVLDELVQICNKKKRTVVHHHHHH |  |  |  |  |  |  |  | neither converted | neither converted | neither converted | neither converted | neither converted | neither converted | neither converted | neither converted | neither converted |
